Assay [1] deals with APLF^AD labelled with the fluorescent tag NT-647 (human) (UniProt Q8IW19). In words: MST.
Assay [2] deals with APLF acidic domain (APLF^AD), Homo sapiens APLF residues 450-511, wild type (human) (UniProt Q8IW19). In words: cross-linking.

A word on the stoichiometry N: it is the number of molecules, sites or subunits per partner or assembly.

APLF^AD labelled with the fluorescent tag NT-647 (human), sequence (Q8IW19 450-511): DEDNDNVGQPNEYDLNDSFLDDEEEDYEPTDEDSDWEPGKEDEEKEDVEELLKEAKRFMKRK
APLF acidic domain (APLF^AD), Homo sapiens APLF residues 450-511, wild type (human), sequence (Q8IW19 450-511): as above

In assay [1], “(H3-H4)2 histone tetramer from Drosophila melanogaster (from UniProt P02299 2-136; P84040 2-103) (complex)” registered a KD of the secondary binding over KD of the high-affinity binding (fold) of 50 fold and a KD,1 (high-affinity binding event, sequential-binding model) of 1.4 µM.

For “H2A-H2B histone dimer from Drosophila melanogaster (from UniProt P84051 2-121; P02283 2-123) (complex)”, the stoichiometry N in assay [2] worked out at 1. For the same substance, the KD,1 (high-affinity binding event, sequential-binding model) in assay [1] came to 0.8 µM.
